From FireProtDB (doi:10.1021/bi00437a058)

B1: Ribonuclease, P00648 (parent)
chain: MMKMEGIALKKRLSWISVCLLVLVSAAGMLFSTAAKTETSSHKAHTEAQVINTFDGVADYLQTYHKLPDNYITKSEAQALGWVASKGNLADVAPGKSIGGDIFSNREGKLPGKSGRTWREADINYTSGFRNSDRILYSSDWLIYKTTDHYQTFTKIR

Variants of: B1
Conditions: Bacillus amyloliquefaciens, pH 6.3, Fluorescence, structure 1BNI, whole UniProt chain shown
[1] = 25 °C, Urea, MES 450 mM, reversible: yes (100%)
[2] = 48 °C, Thermal, MES 50 mM, reversible: yes (>85%)
[3] = Thermal, MES 50 mM, reversible: yes (>85%)
[4] = 25 °C, GdnHCl, MES 450 mM, reversible: yes (100%)

Variant	ddG of mutation (higher = less stable) [1]	denaturant m value [1]	denaturant midpoint (higher = more stable) [1]	unfolding free energy [1]	ddG of mutation (higher = less stable) [2]	Tm [3]	change of melting temperature, mutant - wild type (higher = more stable) [3]	unfolding enthalpy (van 't Hoff) [3]	ddG of mutation (higher = less stable) [4]	denaturant m value [4]	denaturant midpoint (higher = more stable) [4]	unfolding free energy [4]
L61A	4.65 kcal/mol	2.08 kcal/mol/M	2.29 M	4.77 kcal/mol	4.2 kcal/mol	42 °C	-11.9 °C	108 kcal/mol				
I135A	4.08 kcal/mol	2.16 kcal/mol/M	2.47 M	5.34 kcal/mol	3.9 kcal/mol	42.7 °C	-11.2 °C	106 kcal/mol				
I135V	1.47 kcal/mol	2.06 kcal/mol/M	3.87 M	7.95 kcal/mol		51 °C	-2.9 °C	117 kcal/mol				
I143A	3.13 kcal/mol	2.18 kcal/mol/M	2.89 M	6.29 kcal/mol	3.2 kcal/mol	44.9 °C	-9.6 °C	112 kcal/mol	2.72 kcal/mol	4.87 kcal/mol/M	1.26 M	6.16 kcal/mol
I143V	0.74 kcal/mol	2.11 kcal/mol/M	4.11 M	8.68 kcal/mol		51.5 °C	-2.4 °C	121 kcal/mol	0.69 kcal/mol	4.64 kcal/mol/M	1.76 M	8.19 kcal/mol
